Where no end group is shown, it is not given here.
Target: BSA (UniProt P02769 25-607)
Assay: photocrosslinking with TAMRA-tagged adapter, reducing SDS-PAGE, fluorescence image

B1: LASIC Protein G adapter with C-terminal STEPL peptide (TAMRA; TAMRA-DBCO; FAM-Azide; Biotin), BPA position not stated (designed binder)
chain: MTFKLIINGKTLKGEITIEAVDAAEAEKIFKQYANDYGIDGEWTYDDATKTFTVTE
modifications: also: BPA at unstated position, C-terminal Gly-Gly-Gly peptide carrying label (TAMRA, TAMRA-DBCO, FAM-azide or biotin)
notes: also called TAMRA dye-tagged LASIC adapter; TAMRA labeled Protein G adapter protein
binding result: no binding

Source: patent US20220354962A1 (University of Pennsylvania, published 2022)
